Measured values: patent US20230287125A1 (LEPU BIOPHARMA, published 2023)
Where a chain is given by its changes, count along the chain named.

B1: Hu67F3G7-8 (antibody, V domains shown)
VH: EVQLVQSGAEVKKPGASVKVSCKASGYIFTDFWVSWVRQAPGQGLEWIGEIYPNSGVSRYNEKFKGRVTMTVDKSISTAYMELSRLRSDDTAVYYCTKYFGYTYWFGYWGQGTLVTVSS
VL: DTVLTQSPSSLSASVGDRVTITCRASKSVSTYMHWYQQKPGKAPKLLIYSASHLESGVPSRFSGSGSGTDFTLTISSLQPEDFATYYCQQSNELPVTFGGGTKVEIK
notes: humanized
B2: Hu67F3G7-1 (antibody, V domains shown)
VH: B1 VH with I28T, I48M, T97A, K98R
VL: B1 VL with T2I, V3Q, L4M
notes: humanized
B3: Hu67F3G7-4 (antibody, V domains shown)
VH: B1 VH with T97A, K98R
VL: B1 VL with T2I, V3Q, L4M
notes: humanized
B4: Hu67F3G7-6 (antibody, V domains shown)
VH: B1 VH with I28T, I48M, T97A, K98R
VL: B1 VL
notes: humanized
B5: Hu67F3G7-9 (antibody, V domains shown)
VH: B1 VH with T97A, K98R
VL: B1 VL
notes: humanized
B6: Hu67F3G7-10 (antibody, V domains shown)
VH: B1 VH with Q43K
VL: B1 VL
notes: humanized
B7: Hu67F3G7-11 (antibody, V domains shown)
VH: B1 VH with I28T, I48M, T97A, K98R
VL: B1 VL with A43Q
notes: humanized
B8: Hu67F3G7-12 (antibody, V domains shown)
VH: B1 VH with I28T, I48M
VL: B1 VL with A43Q
notes: humanized
B9: Hu67F3G7-13 (antibody, V domains shown)
VH: B1 VH
VL: B1 VL with A43Q
notes: humanized
B10: Hu67F3G7-14 (antibody, V domains shown)
VH: B1 VH with T97A, K98R
VL: B1 VL with A43Q
notes: humanized
B11: Hu67F3G7-15 (antibody, V domains shown)
VH: B1 VH with Q43K
VL: B1 VL with A43Q
notes: humanized
B12: Hu89C10H8-1 (antibody, V domains shown)
VH: EVQLVESGGGLVKPGGSLRLSCAASGFTFSNYWMTWVRQAPGKGLEWVASITNTGSSTFYPDSVKGRFTISRDNAKNSLYLQMNSLRAEDTAVYYCARDTTIAPFDYWGQGTMVTVSS
VL: DIQMTQSPSSLSASVGDRVTITCKASQNLNEYLNWYQQKPGKAPKRLIYKTNTLQAGVPSRFSGSGSGTDYTLTISSLQPEDFATYYCSQYNSGNTFGQGTKLEIK
notes: humanized
B13: Hu89C10H8-2 (antibody, V domains shown)
VH: B12 VH with A97T
VL: B12 VL
notes: humanized
B14: Hu89C10H8-3 (antibody, V domains shown)
VH: B12 VH with V37I, A97T
VL: B12 VL
notes: humanized
B15: Hu89C10H8-5 (antibody, V domains shown)
VH: B12 VH
VL: B12 VL with V58I
notes: humanized
B16: Hu89C10H8-8 (antibody, V domains shown)
VH: B12 VH with V37I, N77S, A97T
VL: B12 VL with V58I
notes: humanized
B17: Hu89C10H8-9 (antibody, V domains shown)
VH: B12 VH
VL: B12 VL with V58I, T69I
notes: humanized
B18: Hu89C10H8-10 (antibody, V domains shown)
VH: B12 VH with A97T
VL: B12 VL with V58I, T69I
notes: humanized
B19: Hu67F3G7-18 (antibody, V domains shown)
VH: B1 VH
VL: DTVLTQSPSLSASVGDRVTITCRASKSVSTYMHWYQQKPGKQPKLLIYSASHLESGVPSRFSGSGSGTDFTLTISSLQPEDFATYYCQQSNELPVTFGGGTKVEIK
notes: humanized
B20: Hu67F3G7-16 (antibody, V domains shown)
VH: B1 VH with I28T, I48M, T97A, K98R
VL: B19 VL
notes: humanized
B21: Hu89C10H8-6 (antibody, V domains shown)
VH: B12 VH with A97T
VL: B12 VL with V58I
notes: humanized

Legend:
[1] = target: T1, human PD-L1-his tag protein (human, UniProt Q9NZQ7 19-238); test: SPR (Biacore), affinity ranking, PDL1-His
T1 construct: also called human PD-L1-His protein; recombinant PD-L1 protein; not shown: his tag

[2] = target: T2, human PD-L1-Fc protein (human, UniProt Q9NZQ7 19-238); test: ELISA, antibody titrated on coated human PD-L1-Fc, OD 450nm; upper right panel
T2 construct: coating antigen of the ELISAs; also called rhPD-L1-Fc; not shown: Fc
Method: (§1) To evaluate antigen binding activity, the humanized antibodies were subjected to ELISA test. Briefly, microtiter plates were coated with human PD-L1-Fc protein at 0.5 μg/ml in PBS, 100 μl/well at 4° C. overnight, then blocked with 200 μl/well of 1% BSA. Three-fold dilutions of humanized antibodies starting from 10 μg/ml were added to each well and incubated for 1 hour at 37° C. The plates were washed with PBS/Tween and then incubated with mouse-anti-human IgG Fab antibody conjugated with Horse Radish Peroxidase (HRP) for 1 hour at 37° C. After washing, the plates were developed with TMB substrate and analyzed by spectrophotometer at OD 450 nm.

[3] = target: T2, human PD-L1-Fc protein; test: ELISA, antibody titrated on coated human PD-L1-Fc, OD 450nm; upper left panel
Method: as §1

[4] = target: T2, human PD-L1-Fc protein; test: ELISA, antibody titrated on coated human PD-L1-Fc, OD 450nm; lower left panel; the table row is headed 'IC50' on the sheet although the curves rise
Method: as §1

T1 sequence (Q9NZQ7 19-238 limits assumed): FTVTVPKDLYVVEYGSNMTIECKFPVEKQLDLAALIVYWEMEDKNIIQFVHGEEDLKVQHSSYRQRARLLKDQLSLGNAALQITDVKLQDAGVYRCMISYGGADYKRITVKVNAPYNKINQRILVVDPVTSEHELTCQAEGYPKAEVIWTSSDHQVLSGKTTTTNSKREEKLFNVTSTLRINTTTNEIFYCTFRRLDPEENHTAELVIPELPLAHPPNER
T2 sequence (Q9NZQ7 19-238 limits assumed): as above

Binder	Kd [1]	koff [1]	kon [1]	EC50 [2]	EC50 [3]	EC50 [4]
B1	0.0356 nM	9.84e-05 s⁻¹	2.76e+06 M⁻¹ s⁻¹	12.5 ng/mL		
B2	0.0655 nM	0.000121 s⁻¹	1.86e+06 M⁻¹ s⁻¹		12.5 ng/mL	
B3	0.0548 nM	0.000103 s⁻¹	1.88e+06 M⁻¹ s⁻¹		10.6 ng/mL	
B4	0.0587 nM	0.000118 s⁻¹	2.01e+06 M⁻¹ s⁻¹		11.8 ng/mL	
B5	0.0454 nM	0.0001 s⁻¹	2.21e+06 M⁻¹ s⁻¹	8.45 ng/mL		
B6	0.0392 nM	9.34e-05 s⁻¹	2.38e+06 M⁻¹ s⁻¹	10.1 ng/mL		
B7	0.0321 nM	0.000164 s⁻¹	5.11e+06 M⁻¹ s⁻¹	8.25 ng/mL		
B8	0.0351 nM	9.01e-05 s⁻¹	2.56e+06 M⁻¹ s⁻¹	9.53 ng/mL		
B9	0.0341 nM	9.54e-05 s⁻¹	2.8e+06 M⁻¹ s⁻¹			10.2 ng/mL
B10	0.0519 nM	0.000109 s⁻¹	2.09e+06 M⁻¹ s⁻¹			14.4 ng/mL
B11	0.0371 nM	9.69e-05 s⁻¹	2.61e+06 M⁻¹ s⁻¹			11.1 ng/mL
B12	0.617 nM	0.000465 s⁻¹	754000 M⁻¹ s⁻¹		6.22 ng/mL	
B13	0.133 nM	8.51e-05 s⁻¹	641000 M⁻¹ s⁻¹		7.28 ng/mL	
B14	0.0785 nM	5.79e-05 s⁻¹	738000 M⁻¹ s⁻¹		6.66 ng/mL	
B15	0.736 nM	0.000494 s⁻¹	671000 M⁻¹ s⁻¹		6.37 ng/mL	
B16	0.102 nM	6.66e-05 s⁻¹	655000 M⁻¹ s⁻¹	7.41 ng/mL		
B17	0.713 nM	0.000478 s⁻¹	671000 M⁻¹ s⁻¹	8.42 ng/mL		
B18	0.151 nM	8.99e-05 s⁻¹	595000 M⁻¹ s⁻¹	7.82 ng/mL		
B19	0.0331 nM	9.51e-05 s⁻¹	2.88e+06 M⁻¹ s⁻¹			14 ng/mL
B20	0.0754 nM	0.000111 s⁻¹	1.48e+06 M⁻¹ s⁻¹			11.4 ng/mL
B21	0.122 nM	8.56e-05 s⁻¹	701000 M⁻¹ s⁻¹		6.51 ng/mL	
